The target of assay [1] is GST-Irga6-D164A (mouse) (UniProt Q9QZ85). In words: pull-down; GST-IRG fusion (25 or 50 µg per 100 µl 1:1 bead suspension) on Glutathione Sepharose 4B; postnuclear NP-40 lysate of RH-YFP T. gondii; o/n at 4°C; with or without 1 mM GDP; Western blot with mAb 3E2 (ROP5) or anti-ROP18 antiserum; GST-loaded beads as control.
Assay [2] concerns the target ROP5 of T. gondii strain RH-YFP (isoforms not told apart) (UniProt F2YGR7). In words: pull-down (quantitated Western blot). Conditions: 25 µg protein/100 µl 1:1 bead suspension; RH-YFP strain T. gondii lysates; 3E2 antibody (anti-ROP5); GST signal subtracted; parent: est. 100; read off a plot. (In general: A western blot detects proteins with antibodies after separation by electrophoresis.)

GST-Irga6, sequence (Q9QZ85 1-411, stated change not applied): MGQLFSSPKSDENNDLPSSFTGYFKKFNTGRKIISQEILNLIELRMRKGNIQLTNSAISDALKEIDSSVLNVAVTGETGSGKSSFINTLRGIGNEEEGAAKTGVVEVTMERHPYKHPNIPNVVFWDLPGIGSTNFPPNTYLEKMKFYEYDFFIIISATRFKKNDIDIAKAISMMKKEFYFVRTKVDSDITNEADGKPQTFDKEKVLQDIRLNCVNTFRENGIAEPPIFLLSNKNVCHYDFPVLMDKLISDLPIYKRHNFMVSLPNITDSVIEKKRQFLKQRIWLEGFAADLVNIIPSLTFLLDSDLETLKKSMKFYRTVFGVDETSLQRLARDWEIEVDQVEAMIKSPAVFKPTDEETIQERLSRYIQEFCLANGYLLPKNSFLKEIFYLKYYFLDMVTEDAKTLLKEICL
ROP5 of T. gondii strain RH-YFP (isoforms not told apart) (from UniProt F2YGR7 25-549) (natural protein), sequence (F2YGR7 25-549): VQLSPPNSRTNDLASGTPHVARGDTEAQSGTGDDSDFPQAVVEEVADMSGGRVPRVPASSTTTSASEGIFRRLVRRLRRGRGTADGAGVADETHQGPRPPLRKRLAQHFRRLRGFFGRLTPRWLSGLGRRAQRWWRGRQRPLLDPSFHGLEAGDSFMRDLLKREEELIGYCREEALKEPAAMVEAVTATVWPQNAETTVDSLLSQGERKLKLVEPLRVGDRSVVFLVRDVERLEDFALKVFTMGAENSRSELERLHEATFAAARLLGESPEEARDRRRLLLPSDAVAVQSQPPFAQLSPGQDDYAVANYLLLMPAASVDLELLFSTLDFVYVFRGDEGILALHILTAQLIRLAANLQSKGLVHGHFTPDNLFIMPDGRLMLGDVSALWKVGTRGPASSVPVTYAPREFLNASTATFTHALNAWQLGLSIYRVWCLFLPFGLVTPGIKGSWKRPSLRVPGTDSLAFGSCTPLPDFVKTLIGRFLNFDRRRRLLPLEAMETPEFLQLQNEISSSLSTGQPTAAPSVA
ROP5 of T. gondii strain RH-YFP (isoforms not told apart) (UniProt F2YGR7), sequence (F2YGR7 25-549): as above
GST-Irga6-D164A (mouse), sequence (Q9QZ85 1-411 D164A): as the sequence (Q9QZ85 1-411, stated change not applied) above, with D164A counted along it

Consider “ROP5 of T. gondii strain RH-YFP (isoforms not told apart) (from UniProt F2YGR7 25-549) (natural protein)”, for which, in assay [1], the percent of ROP5 binding blocked (against wt GST-Irga6) was > 95%.

Consider GST-Irga6 (from UniProt Q9QZ85) D206R, for which, in assay [2], the percent of parent (% of wild-type intensity) came to 68.

Values taken from article PMC3393671.
